Experimental data taken from US20200270365A1 (JIANGSU HENGRUI MEDICINE, published 2020).
Read-outs that look alike come from different tables or passages of the source.

B1: humanized antibody h011-3 (antibody, V domains shown)
VH: QVQLVQSGAEVKKPGASVKVSCKASGYTFTGYTIHWVRQAPGQGLEWMGYINPSSTYTKFNQKFKDRVTMTRDTSISTAYMELSRLRSDDTAVYYCARERIYSNYWFFDVWGQGTTVTVSS
VL: DIVMTQSPSSLSASVGDRVTITCKASQNVYTAVAWYQQKPGKSPKLLIYSASNRYTGVPSRFSGSGSGTDFTLTISSLQPEDFATYFCQQYSSYPYTFGGGTKVEIK
notes: h011_VH.1 with h011_VL.1B
B2: h011-3133-WT: h011-3133-IgG1 format (antibody)
heavy: not shown
light: DIVMTQSPSSLSASVGDRVTITCKASQNVYTAVAWYQQKPGKSPKLLIYSASNRYTGVPSRFSGSGSGTDFTLTISSLQPEDFATYFCQQYSSYPYTFGGGTKVEIKRTVAAPSVFIFPPSDEQLKSGTASVVCLLNNFYPREAKVQWKVDNALQSGNSQESVTEQDSKDSTYSLSSTLTLSKADYEKHKVYACEVTHQGLSSPVTKSFNRGEC
notes: Human IgG1 heavy chain constant region, human kappa light chain
B3: h011-3133-YTE: h011-3133-IgG1-YTE format (antibody)
heavy: QVQLVQSGAEVKKPGASVKVSCKASGYTFTGYEIHWVRQAPGQGLEWMGYINPSATYTKFNQKFKDRVTMTRDTSISTAYMELSRLRSDDTAVYYCARERIYSNYWFFDVWGQGTTVTVSSASTKGPSVFPLAPSSKSTSGGTAALGCLVKDYFPEPVTVSWNSGALTSGVHTFPAVLQSSGLYSLSSVVTVPSSSLGTQTYICNVNHKPSNTKVDKKVEPKSCDKTHTCPPCPAPELLGGPSVFLFPPKPKDTLYITREPEVTCVVVDVSHEDPEVKFNWYVDGVEVHNAKTKPREEQYNSTYRVVSVLTVLHQDWLNGKEYKCKVSNKALPAPIEKTISKAKGQPREPQVYTLPPSRDELTKNQVSLTCLVKGFYPSDIAVEWESNGQPENNYKTTPPVLDSDGSFFLYSKLTVDKSRWQQGNVFSCSVMHEALHNHYTQKSLSLSPGK
light: B2 light
notes: Mutant human IgG1 (YTE: M252Y, S254T, T256E, EU numbering), human kappa light chain

Columns and labels:
[1] = biological target: T1, PCSK9 D374Y mutant protein inserted with biotin receiving peptide BP15 and His-tag: PCSK9-D374Y-BP15-His6 (human, UniProt Q8NBP7 153-692; A8T644 31-152, biotin on the BP15 biotin receiving peptide); experiment: ELISA, biotin PCSK9-Y on streptavidin plate
T1 construct: also called PCSK9-Y; mutant PCSK9
Experimental: The binding ability of anti-PCSK9 antibodies of the present invention to PCSK9-Y protein (mutant PCSK9, SEQ ID NO: 6) was detected by measuring the amounts of antibodies binding to PCSK9-Y immobilized on the ELISA plate.
Streptavidin (sigma, CAT #S4762) was diluted to 2 μg/ml with PBS and was added into a 96-well ELISA plate, at 4° C. for overnight. The plate was washed and then was blocked with Tris buffer (including 0.9 mM CaCl₂, 0.05% Tween 20 and 5% skim milk) at 37° C. for 2 hours. The plate was washed and 100 μl/well of biotin-labeled PCSK9-Y (produced in-house, diluted with Tris buffer containing 0.9 mM CaCl₂, 0.05% Tween 20 and 1% skim milk) was added and incubated at 37° C. for 1 hour. After the wash step, various concentrations of diluted PCSK9 antibody samples were added to the plate and incubated at 37° C. for 1 hour. […] Then the plate was washed and tetramethyl brenzidine solution was added for development. Finally, the stop buffer was added and the OD450 value was measured on the Microplate reader, and then EC50 was calculated.

[2] = biological target: T2, PCSK9 protein inserted with biotin receiving peptide BP15 and His-tag: PCSK9-BP15-His6 (human, UniProt Q8NBP7 153-692; A8T644 31-152, biotin on the BP15 biotin receiving peptide (labeled during the expression)); experiment: competition ELISA, LDLR-FC coated, biotin PCSK9 + antibody
T2 construct: also called WT PCSK9; PCSK9 WT
Experimental: (§1) Different back mutations were selected for combination (Table 3) after CDR grafting. The designed humanized sequences were fully-gene synthesized and heavy and light chains were combined with each other for mammalian expression (Table 4). After purification of the protein, the blocking activity test was performed similarly to that for chimeric antibodies (see test 3 and 4 for the method and the results are shown in Table 5). Some cloned proteins were selected and were determined for dissociation constants by Surface Plasmon resonance (SPR) (Biacore X100, GE, see test 5). The sample to be tested was captured by the Amine-Coupling Anti-Fc pAb (GE) on the CM5 chip (GE). PCSK9 (SEQ ID NO: 1) or PCSK9-Y (SEQ ID NO: 4) was the mobile phase, working buffer was 1×HBS-EP⁺, pH 7.4, regeneration bu0ffer was 3 M MgCl₂.
(§2) LDLR-FC was diluted to 5 μg/ml with phosphate buffer and was added into the 96-well ELISA plate, kept at 4° C. overnight. The plate was washed and then blocked with Tris buffer (including 0.9 mM CaCl₂, 0.05% Tween 20 and 5% skim milk) at 37° C. for 2 hours. […] Finally, the stop buffer was added and OD450 value was measured on the Microplate reader, then IC50 value was calculated.

[3] = biological target: T2, PCSK9 protein inserted with biotin …; experiment: as above; remark: listed apart in the source
Experimental: The blocking ability of PCSK9 antibodies according to the present invention for the binding of LDLR-FC (produced in-house, with sequence of SEQ ID NO: 8) and PCSK9 (SEQ ID NO: 5) was tested by measuring the amount of PCSK9 binding to LDLR in the presence of the antibodies.
(§3) LDLR-FC was diluted to 5 μg/ml with phosphate buffer and was added into the 96-well ELISA plate, kept at 4° C. overnight. The plate was washed and then blocked with Tris buffer (including 0.9 mM CaCl₂, 0.05% Tween 20 and 5% skim milk) at 37° C. for 2 hours. Then the plate was washed and 100 μl/well of mixture of biotin-labeled PCSK9 (diluted to 2 μg/ml with Tris buffer containing 0.9 mM CaCl₂, 0.05% Tween 20 and 1% skim milk) and antibody samples (diluted with Tris buffer containing 0.9 mM CaCl₂, 0.05% Tween 20 and 1% skim milk) was added and incubated at 37° C. for 1 hour. Then the plate was washed again and horseradish peroxidase-streptavidin (sigma, CAT #S2438) was added and incubated at 37° C. for 1 hour. Then the plate was washed and tetramethyl brenzidine solution was added for development. Finally, the stop buffer was added and OD450 value was measured on the Microplate reader, then IC50 value was calculated.

[4] = biological target: T2, PCSK9 protein inserted with biotin …; experiment: ELISA, biotin PCSK9 on streptavidin plate
Experimental: The binding ability of anti-PCSK9 antibodies of the present invention to PCSK9 protein (WT PCSK9, SEQ ID NO: 5) was detected by measuring the amounts of antibodies binding to PCSK9 immobilized on the ELISA plate.
Streptavidin (sigma, CAT #S4762) was diluted to 2 μg/ml with PBS and was added into a 96-well ELISA plate, at 4° C. for overnight. The plate was washed and then was blocked with Tris buffer (including 0.9 mM CaCl₂, 0.05% Tween 20 and 5% skim milk) at 37° C. for 2 hours. Then the plate was washed again and 100 μl/well of biotin-labeled PCSK9 (produced in-house, diluted with Tris buffer containing 0.9 mM CaCl₂, 0.05% Tween 20 and 1% skim milk) was added and incubated at 37° C. for 1 hour. After the wash step various concentrations of diluted PCSK9 antibody samples was added to the plate and incubated at 37° C. for 1 hour. […] Then the plate was washed and tetramethyl brenzidine solution was added for development. Finally, the stop buffer was added and the OD450 value was measured on the Microplate reader, and then EC50 was calculated.

[5] = biological target: T1, PCSK9 D374Y mutant protein inserted …; experiment: competition ELISA, LDLR-FC coated, biotin PCSK9-Y + antibody
Experimental: as §1
as §2, with “LDLR-FC (produced in-house, with sequence of SEQ ID NO: 8)” for “LDLR-FC”, “to 2” for “to 5”, “plate,” for “plate, kept”

[6] = biological target: T3, PCSK9-D374Y mutant protein with His-tag: PCSK9-D374Y-His6 (human, UniProt Q8NBP7 153-692; A8T644 31-152); experiment: SPR Biacore X100, antibody captured by anti-Fc pAb on CM5, PCSK9-Y mobile phase
T3 construct: also called PCSK9-Y; PCSK9-Y antigen
Experimental: as §1

[7] = biological target: T4, PCSK9 with His-tag: PCSK9-His6 (human, UniProt Q8NBP7 153-692; A8T644 31-152); experiment: SPR Biacore X100, antibody captured by anti-Fc pAb on CM5, PCSK9 mobile phase
T4 construct: also called huPCSK9; human PCSK9 antigen
Experimental: as §1

[8] = biological target: T1, PCSK9 D374Y mutant protein inserted …; experiment: competition ELISA, LDLR-FC coated, biotin PCSK9-Y + antibody; remark: listed apart in the source
Experimental: The blocking ability of PCSK9 antibodies according to the present invention for the binding of LDLR-FC and PCSK9-Y (mutant PCSK9, SEQ ID NO: 6) was tested by measuring the amount of PCSK9-Y binding to LDLR in the presence of the antibodies.
as §3, with “LDLR-FC (produced in-house, with sequence of SEQ ID NO: 8)” for “LDLR-FC”, “to 2” for “to 5”, “plate,” for “plate, kept”, “biotin-labeled mutant” for “biotin-labeled”, “to 1” for “to 2”

[9] = biological target: T4, PCSK9 with His-tag: PCSK9-His6; experiment: SPR Biacore, antibody captured by human Fab capture molecule on CM5, PCSK9-His6 mobile phase
Text: According to the method described in the human Fab capture kit (Cat. #28-9583-25, GE), the human Fab capture molecule was covalently linked to the CM5 biochip (Cat. #BR-1000-12, GE) so that the PCSK9 antibodies of the present invention were affinity captured. Then, human PCSK9 antigen (PCSK9 with His tag: PCSK9-His6, SEQ ID NO: 1) flowed through the surface of the biochip, and the reaction signal was detected in real time using a Biacore instrument to obtain the association and dissociation curves. Finally, the affinity values were obtained by fitting and are shown at table 16 below. After each cycle of dissociation was finished, the biochip was washed and regenerated with regeneration solution in the human Fab capture kit (GE).

Binder | EC50 [1] [µg/mL] | IC50 [2] [µg/mL] | IC50 [3] [µg/mL] | EC50 [4] [ng/mL] | IC50 [5] [µg/mL] | Kd [6] [nM] | koff [6] [s⁻¹] | kon [6] [M⁻¹ s⁻¹] | Kd [7] [nM] | koff [7] [s⁻¹] | kon [7] [M⁻¹ s⁻¹] | IC50 [8] [µg/mL] | Kd [9] [nM]
B1 | 1.78 | 0.205 | 0.681 | 7.19 | 5.13 | 34.5 | 0.00578 | 168000 | 0.263 | 1.88e-05 | 71300 | 5.49 | –
B2 | – | – | – | – | – | – | – | – | – | – | – | – | < 0.0526
B3 | – | – | – | – | – | – | – | – | – | – | – | – | < 0.0518
